{"source": "the supplement of paper PMC9112550", "about": "“Optimization of the antimicrobial peptide Bac7 by deep mutational scanning” (BMC Biology, 2022);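 further: peptides expressed intracellularly from a pBAD plasmid library in pooled LB shake-flask culture, induced with 0.3% L-arabinose, DNA abundance read by NGS, three biological replicates, DESeq2 with apeglm shrinkage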", "data": [{"test_system": "Escherichia coli TOP10", "experiment": "shrunken log2 fold change of peptide-encoding DNA abundance (4.5 h post-induction vs induction); higher = less antimicrobial activity (less host growth inhibition)", "conditions": "time post-induction: 4.5 h; library: site-saturation at positions 5, 18, 19, 20", "values": [{"sequence": "RRIRIRPPRLPRPRPRPRSEPRP", "shrunken log2 fold change": -0.0944}, {"sequence": "RRIRIRPPRLPRPRPRPRSRPRP", "shrunken log2 fold change": 0.0781}, {"sequence": "RRIRIRPPRLPRPRPRPRTVPRP", "shrunken log2 fold change": -0.197}, {"sequence": "RRIRIRPPRLPRPRPRPRVDPRP", "shrunken log2 fold change": 0.061}, {"sequence": "RRIRIRPPRLPRPRPRPRWIPRP", "shrunken log2 fold change": -0.0611}, {"sequence": "RRIRIRPPRLPRPRPRPRWKPRP", "shrunken log2 fold change": 0.0818}, {"sequence": "RRIRIRPPRLPRPRPRPRYSPRP", "shrunken log2 fold change": -0.484}, {"sequence": "RRIRIRPPRLPRPRPRPSDNPRP", "shrunken log2 fold change": -0.421}, {"sequence": "RRIRIRPPRLPRPRPRPSFFPRP", "shrunken log2 fold change": -0.654}, {"sequence": "RRIRIRPPRLPRPRPRPSFYPRP", "shrunken log2 fold change": -0.776}, {"sequence": "RRIRIRPPRLPRPRPRPSGCPRP", "shrunken log2 fold change": -0.137}, {"sequence": "RRIRIRPPRLPRPRPRPSHKPRP", "shrunken log2 fold change": -0.671}, {"sequence": "RRIRIRPPRLPRPRPRPSHMPRP", "shrunken log2 fold change": -0.425}, {"sequence": "RRIRIRPPRLPRPRPRPSKAPRP", "shrunken log2 fold change": -0.176}, {"sequence": "RRIRIRPPRLPRPRPRPSMMPRP", "shrunken log2 fold change": -0.886}, {"sequence": "RRIRIRPPRLPRPRPRPSNYPRP", "shrunken log2 fold change": -0.086}, {"sequence": "RRIRIRPPRLPRPRPRPSPEPRP", "shrunken log2 fold change": -0.241}, {"sequence": "RRIRIRPPRLPRPRPRPSPVPRP", "shrunken log2 fold change": -0.297}, {"sequence": "RRIRIRPPRLPRPRPRPSPYPRP", "shrunken log2 fold change": -0.396}, {"sequence": "RRIRIRPPRLPRPRPRPSQWPRP", "shrunken log2 fold change": -1.15}, {"sequence": "RRIRIRPPRLPRPRPRPSRAPRP", "shrunken log2 fold change": -0.212}, {"sequence": "RRIRIRPPRLPRPRPRPSRIPRP", "shrunken log2 fold change": -0.0712}, {"sequence": "RRIRIRPPRLPRPRPRPSSQPRP", "shrunken log2 fold change": -0.674}, {"sequence": "RRIRIRPPRLPRPRPRPSVDPRP", "shrunken log2 fold change": -0.326}, {"sequence": "RRIRIRPPRLPRPRPRPSYHPRP", "shrunken log2 fold change": -0.933}, {"sequence": "RRIRIRPPRLPRPRPRPSYLPRP", "shrunken log2 fold change": -0.831}, {"sequence": "RRIRIRPPRLPRPRPRPSYTPRP", "shrunken log2 fold change": -1.06}, {"sequence": "RRIRIRPPRLPRPRPRPTACPRP", "shrunken log2 fold change": 0.0015}, {"sequence": "RRIRIRPPRLPRPRPRPTADPRP", "shrunken log2 fold change": -0.063}, {"sequence": "RRIRIRPPRLPRPRPRPTDSPRP", "shrunken log2 fold change": -0.237}, {"sequence": "RRIRIRPPRLPRPRPRPTEFPRP", "shrunken log2 fold change": -0.408}, {"sequence": "RRIRIRPPRLPRPRPRPTEKPRP", "shrunken log2 fold change": 0.0176}, {"sequence": "RRIRIRPPRLPRPRPRPTFMPRP", "shrunken log2 fold change": 1.69}, {"sequence": "RRIRIRPPRLPRPRPRPTHLPRP", "shrunken log2 fold change": -0.0268}, {"sequence": "RRIRIRPPRLPRPRPRPTITPRP", "shrunken log2 fold change": -0.996}, {"sequence": "RRIRIRPPRLPRPRPRPTKEPRP", "shrunken log2 fold change": 0.0462}, {"sequence": "RRIRIRPPRLPRPRPRPTKPPRP", "shrunken log2 fold change": -0.0472}, {"sequence": "RRIRIRPPRLPRPRPRPTLEPRP", "shrunken log2 fold change": 2.35}, {"sequence": "RRIRIRPPRLPRPRPRPTMRPRP", "shrunken log2 fold change": 0.553}, {"sequence": "RRIRIRPPRLPRPRPRPTNAPRP", "shrunken log2 fold change": -0.0508}, {"sequence": "RRIRIRPPRLPRPRPRPTNMPRP", "shrunken log2 fold change": -0.427}, {"sequence": "RRIRIRPPRLPRPRPRPTPCPRP", "shrunken log2 fold change": 0.598}, {"sequence": "RRIRIRPPRLPRPRPRPTPLPRP", "shrunken log2 fold change": 0.245}, {"sequence": "RRIRIRPPRLPRPRPRPTQGPRP", "shrunken log2 fold change": -0.104}, {"sequence": "RRIRIRPPRLPRPRPRPTQSPRP", "shrunken log2 fold change": 0.575}, {"sequence": "RRIRIRPPRLPRPRPRPTQWPRP", "shrunken log2 fold change": -0.136}, {"sequence": "RRIRIRPPRLPRPRPRPTRWPRP", "shrunken log2 fold change": 0.242}, {"sequence": "RRIRIRPPRLPRPRPRPTSDPRP", "shrunken log2 fold change": -0.245}, {"sequence": "RRIRIRPPRLPRPRPRPTSKPRP", "shrunken log2 fold change": -0.207}, {"sequence": "RRIRIRPPRLPRPRPRPTSNPRP", "shrunken log2 fold change": -0.807}, {"sequence": "RRIRIRPPRLPRPRPRPTSVPRP", "shrunken log2 fold change": -0.18}, {"sequence": "RRIRIRPPRLPRPRPRPTTMPRP", "shrunken log2 fold change": -0.394}, {"sequence": "RRIRIRPPRLPRPRPRPTTTPRP", "shrunken log2 fold change": -0.00987}, {"sequence": "RRIRIRPPRLPRPRPRPTVKPRP", "shrunken log2 fold change": -0.468}, {"sequence": "RRIRIRPPRLPRPRPRPTVWPRP", "shrunken log2 fold change": 0.163}, {"sequence": "RRIRIRPPRLPRPRPRPTWMPRP", "shrunken log2 fold change": -0.306}, {"sequence": "RRIRIRPPRLPRPRPRPTWPPRP", "shrunken log2 fold change": 0.368}, {"sequence": "RRIRIRPPRLPRPRPRPTYNPRP", "shrunken log2 fold change": -0.783}, {"sequence": "RRIRIRPPRLPRPRPRPTYQPRP", "shrunken log2 fold change": -0.715}, {"sequence": "RRIRIRPPRLPRPRPRPTYTPRP", "shrunken log2 fold change": -0.405}, {"sequence": "RRIRIRPPRLPRPRPRPVAPPRP", "shrunken log2 fold change": 0.244}, {"sequence": "RRIRIRPPRLPRPRPRPVAYPRP", "shrunken log2 fold change": -0.0713}, {"sequence": "RRIRIRPPRLPRPRPRPVCFPRP", "shrunken log2 fold change": -0.256}, {"sequence": "RRIRIRPPRLPRPRPRPVDQPRP", "shrunken log2 fold change": -0.0969}, {"sequence": "RRIRIRPPRLPRPRPRPVEVPRP", "shrunken log2 fold change": 0.0961}, {"sequence": "RRIRIRPPRLPRPRPRPVFIPRP", "shrunken log2 fold change": -0.472}, {"sequence": "RRIRIRPPRLPRPRPRPVHMPRP", "shrunken log2 fold change": -0.315}, {"sequence": "RRIRIRPPRLPRPRPRPVLVPRP", "shrunken log2 fold change": 0.0259}, {"sequence": "RRIRIRPPRLPRPRPRPVMNPRP", "shrunken log2 fold change": -0.61}, {"sequence": "RRIRIRPPRLPRPRPRPVSHPRP", "shrunken log2 fold change": 0.113}, {"sequence": "RRIRIRPPRLPRPRPRPVSPPRP", "shrunken log2 fold change": 0.188}, {"sequence": "RRIRIRPPRLPRPRPRPVTSPRP", "shrunken log2 fold change": -0.0328}, {"sequence": "RRIRIRPPRLPRPRPRPVVDPRP", "shrunken log2 fold change": -0.105}, {"sequence": "RRIRIRPPRLPRPRPRPVWMPRP", "shrunken log2 fold change": 0.11}, {"sequence": "RRIRIRPPRLPRPRPRPVWPPRP", "shrunken log2 fold change": 0.0939}, {"sequence": "RRIRIRPPRLPRPRPRPVWRPRP", "shrunken log2 fold change": 0.391}, {"sequence": "RRIRIRPPRLPRPRPRPVWWPRP", "shrunken log2 fold change": 0.0779}, {"sequence": "RRIRIRPPRLPRPRPRPVYDPRP", "shrunken log2 fold change": -0.0144}, {"sequence": "RRIRIRPPRLPRPRPRPVYNPRP", "shrunken log2 fold change": -0.314}, {"sequence": "RRIRIRPPRLPRPRPRPVYTPRP", "shrunken log2 fold change": -0.346}, {"sequence": "RRIRIRPPRLPRPRPRPVYVPRP", "shrunken log2 fold change": -1.58}, {"sequence": "RRIRIRPPRLPRPRPRPVYYPRP", "shrunken log2 fold change": -1.62}, {"sequence": "RRIRIRPPRLPRPRPRPWAHPRP", "shrunken log2 fold change": -0.923}, {"sequence": "RRIRIRPPRLPRPRPRPWDYPRP", "shrunken log2 fold change": -0.00975}, {"sequence": "RRIRIRPPRLPRPRPRPWEAPRP", "shrunken log2 fold change": 0.0112}, {"sequence": "RRIRIRPPRLPRPRPRPWENPRP", "shrunken log2 fold change": -0.00674}, {"sequence": "RRIRIRPPRLPRPRPRPWEQPRP", "shrunken log2 fold change": 0.107}, {"sequence": "RRIRIRPPRLPRPRPRPWFNPRP", "shrunken log2 fold change": -1.25}, {"sequence": "RRIRIRPPRLPRPRPRPWGGPRP", "shrunken log2 fold change": 0.297}, {"sequence": "RRIRIRPPRLPRPRPRPWHEPRP", "shrunken log2 fold change": 0.0173}, {"sequence": "RRIRIRPPRLPRPRPRPWIHPRP", "shrunken log2 fold change": 2.37}, {"sequence": "RRIRIRPPRLPRPRPRPWKAPRP", "shrunken log2 fold change": -0.00804}, {"sequence": "RRIRIRPPRLPRPRPRPWKTPRP", "shrunken log2 fold change": -0.197}, {"sequence": "RRIRIRPPRLPRPRPRPWLQPRP", "shrunken log2 fold change": 0.0391}, {"sequence": "RRIRIRPPRLPRPRPRPWMMPRP", "shrunken log2 fold change": -0.178}, {"sequence": "RRIRIRPPRLPRPRPRPWMYPRP", "shrunken log2 fold change": -0.184}, {"sequence": "RRIRIRPPRLPRPRPRPWNQPRP", "shrunken log2 fold change": 0.00812}, {"sequence": "RRIRIRPPRLPRPRPRPWNWPRP", "shrunken log2 fold change": 0.0631}, {"sequence": "RRIRIRPPRLPRPRPRPWQGPRP", "shrunken log2 fold change": -0.125}, {"sequence": "RRIRIRPPRLPRPRPRPWQHPRP", "shrunken log2 fold change": 0.0851}, {"sequence": "RRIRIRPPRLPRPRPRPWQRPRP", "shrunken log2 fold change": -0.075}, {"sequence": "RRIRIRPPRLPRPRPRPWQVPRP", "shrunken log2 fold change": 0.0844}, {"sequence": "RRIRIRPPRLPRPRPRPWSIPRP", "shrunken log2 fold change": -0.211}, {"sequence": "RRIRIRPPRLPRPRPRPWTNPRP", "shrunken log2 fold change": -0.00152}, {"sequence": "RRIRIRPPRLPRPRPRPWTRPRP", "shrunken log2 fold change": -0.187}, {"sequence": "RRIRIRPPRLPRPRPRPWVSPRP", "shrunken log2 fold change": -0.119}, {"sequence": "RRIRIRPPRLPRPRPRPWVWPRP", "shrunken log2 fold change": 0.414}, {"sequence": "RRIRIRPPRLPRPRPRPWWHPRP", "shrunken log2 fold change": -0.218}, {"sequence": "RRIRIRPPRLPRPRPRPWWMPRP", "shrunken log2 fold change": -0.0772}]}]}
